One test concerns the target p53 (Homo sapiens, UniProt P04637). In words: GST-Fortilin in vitro pull-down of labeled p53. The class given is binding. As to conditions: 35S-labeled p53, 4° C. 90 minutes. The method, then: (§1) Studies were initiated to determine whether p53 and Fortilin specifically interact. Either recombinant GST-Fortilin or GST only were incubated at 4° C. for 90 minutes with in vitro translated, [^35S-Met]-labeled p53, MCL1 or Bcl-xL, in Binding Buffer (50 mM HEPES, pH7.5, 70 mM KCl, 0.5 mM ATP, 5 mM MgSO4, 1 mM DTT, 0.001% NP40, 50 μM MG132, 2 μg/mL BSA, Aporotinin, PMSF and protease inhibitor cocktail (Sigma Co., St. Louis, Mo.)). The GST or GST-Fortilin was then pulled down with Glutathione Sepharose 4B beads (Amersham-Pharmacia Biotechnologies). Formed complexes were extensively washed and eluted into SDS loading buffer. The eluted proteins were subjected to SDS-PAGE in duplicate. The first SDS gel was stained with Commassie Blue to confirm the successful immunoprecipitation of GST and GST-Fortilin (IP). […] Thus, there is a specific interaction present between Fortilin and p53, between Fortilin and MCL1.

In test [1] the target is T1, Bcl-xL (Homo sapiens, UniProt Q07817). In words: GST-Fortilin in vitro pull-down of labeled Bcl-xL. As to conditions: 35S-labeled Bcl-xL. The format is binding. How it is done:
as §1

The target in test [2] is T2, MCL1 (Homo sapiens, UniProt Q07820). In words: GST-Fortilin in vitro pull-down of labeled MCL1. The format is binding. As to conditions: 35S-labeled MCL1. The method, then: as §1
The target in another test is PCNA (Homo sapiens, UniProt P12004). Nature of the test: In vitro pull-down assay of Fortilin-HA with PCNA. The format is binding. As to conditions: in vitro translated proteins, anti-HA pull-down.
The target of test [3] is T2, MCL1. In words: In vitro pull-down assay of HA-tagged Fortilin or mutants with MCL1. The format is binding. To be noted: in vitro translated 35S-labeled proteins, anti-HA pull-down.
Test [4] concerns the target T1, Bcl-xL. In words: In vitro pull-down assay of Fortilin-HA with Bcl-xL. The class given is binding. To be noted: in vitro translated proteins, anti-HA pull-down.
Test [5] relates to p53 transactivation of Bax gene. Nature of the test: p53 transactivation of Bax gene, p-Bax-RE-Luc luciferase reporter in H1299 cells. The format is cell-based. How it is done: The ability of Fortilin to interfere with transactivation of the Bax gene by p53 was investigated. Non-small cell lung cancer cell line H1299 cells were transfected with p53-pcDNA3, LacZ-pFLAG, p-Bax-RE-Luc (a plasmid encoding the Luciferase gene under the control of the Bax responsive element) and pFLAG vector encoding Bcl-2, MCL1, Fortilin or truncated Fortilin as indicated in FIG. 6. Twenty-four hours after the transfection, luciferase activity was measured and normalized to the β-galactosidase activity, the latter representing transfection efficiency.
Next, studies were conducted to determine whether the inhibition was dosage dependent. H1299 cells were transfected with p53-pcDNA3, LacZ-pFLAG, p-Bax-RE-Luc and various amount of Fortilin-pFLAG. The total amount of DNA added was adjusted by the addition of empty pFLAG vector. Twenty-four hours after the transfection, luciferase activity was measured and normalized to the β-galactosidase activity.
On the technique in general: Reporter assays use an easily measured gene product as a stand-in for the process of interest.

Another test has as its system H1299 cells. Nature of the test: p53-mediated apoptosis in transfected H1299 cells (apoptotic index). The format is cell-based. To be noted: overexpression, thirty hours after transfection. How it is done:
Because wild-type p53 can induce apoptosis, the ability of Fortilin to prevent or inhibit p53-mediated apoptosis was examined. H1299 cells were transfected with indicated combinations of mammalian expression constructs. Thirty hours after the transfection, cells were fixed and stained for beta-galactosidase activities. Cells that were round in shape with significant membrane irregularity were counted as apoptotic (FIG. 5). Apoptotic index was calculated as (Blue cells with apoptotic plasma membrane morphology)/(Total blue cells counted)×100.

The subject of a further test is HeLa cells. In words: Cell death assay: etoposide-induced apoptosis in transfected HeLa cells (apoptotic index). The format is cell-based. The method, then: Cell death assay: The experiment was performed in duplicate and repeated at least three times. A total of […] HeLa cells were seeded in each well of a 4-well Lab-Teck™ chamber slides (Nalge Nunc International), and transfected with pFLAG containing Fortilin or other control cDNAs, using FuGENE6 (Roche). Twenty-four hours after the transfection, the cells were challenged by 5 μg/mL etoposide for 12 hours. Cells were stained for the FLAG-epitope using anti-FLAG antibody (M2, Sigma Co) and anti-mouse IgG conjugated to Rhodamine Red X (Jackson ImmunoResearch Laboratories). The nuclei were stained with DAPI (4,6-Diamidino-2-phenylindole, Sigma Co). Cells were then examined under a Zeiss AXIOSKOP fluorescent microscope (Carl Zeiss Ltd.), using appropriate filter sets. Cells that emitted red fluorescence were evaluated for their nuclear morphology. Condensed or fragmented nuclei were counted as apoptotic. An apoptotic index was then calculated as the number of red cells with apoptotic nuclear morphology divided by the number of total red cells counted and multiplied by 100.
Statistical analysis: For the analysis of statistical significance of apoptotic indices among cells transfected with different plasmids, Dunnett's T tests were performed. In all cases, the confidence intervals were 0.95 with the alpha value of 0.05. For the statistical evaluation of the significant linear trend between the amount of plasmids used for the transfection and apoptotic indices, ANOVA (Analysis of Variance) regression analysis was employed. […] For the analysis of statistical significance of possible correlation between the degree of malignancy and the indices of Fortilin immunoreactivity, Dunnett's multiple range tests were performed.

The subject of test [6] is MCL1. In words: Western blot of intracellular MCL1 concentration in U2OS cells overexpressing Fortilin. The format is cell-based. To be noted: U2OS stable transfectants, compared with control or wild type transfectants.
A further test deals with T3, Bak (Homo sapiens, UniProt Q16611).
T3 sequence (Q16611 1-211): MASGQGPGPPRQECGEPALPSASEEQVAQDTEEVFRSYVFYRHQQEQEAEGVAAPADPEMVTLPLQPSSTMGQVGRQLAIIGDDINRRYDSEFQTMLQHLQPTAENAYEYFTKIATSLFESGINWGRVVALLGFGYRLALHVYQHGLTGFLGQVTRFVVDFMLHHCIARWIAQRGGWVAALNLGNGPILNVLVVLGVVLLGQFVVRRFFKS
In words: In vitro pull-down assay of Fortilin-HA with Bak. As to conditions: in vitro translated proteins, anti-HA pull-down. The class given is binding.

The test system of another test is U2OS cells. Nature of the test: Bax-mediated apoptosis in transfected U2OS cells (apoptotic index). The format is cell-based. As to conditions: U2OS cells cotransfected with Bax-pcDNA3, thirty hours after transfection. The method, then:
The amount of LacZ-pFLAG was 1/10 to 1/20 (w/w) of total amounts of DNA added. Thirty hours after the transfection, cells were stained with X-gal. Blue cells represented cells expressing Bax, β-galactosidase and indicated proteins in question. At least 300 blue cells were counted and evaluated for plasma membrane morphology. Rounded cells were counted as apoptotic. Apoptotic index was calculated as the number of blue apoptotic cells divided by the number of total blue cells counted, expressed in percentage. Without the expression of Bax, there was a modest amount of background cell death noted (Lane 6). On the other hand, the presence of Bax caused 2 holds increase in the number of apoptotic cells (Lane 5). […] Taken together, the ability of Fortilin to inhibit Bax mediated apoptosis is mediated by its interaction with MCL1.

“Also recorded” adds a separate entry of the source.

The results in this text go back to patent US7691567B2, “Methods and compositions relating to fortilin, an anti-apoptotic molecule, and modulators of fortilin” (Board of Regents, the University of Texas System, priority 2000, dated 2010).

T2 sequence (Q07820 whole entry): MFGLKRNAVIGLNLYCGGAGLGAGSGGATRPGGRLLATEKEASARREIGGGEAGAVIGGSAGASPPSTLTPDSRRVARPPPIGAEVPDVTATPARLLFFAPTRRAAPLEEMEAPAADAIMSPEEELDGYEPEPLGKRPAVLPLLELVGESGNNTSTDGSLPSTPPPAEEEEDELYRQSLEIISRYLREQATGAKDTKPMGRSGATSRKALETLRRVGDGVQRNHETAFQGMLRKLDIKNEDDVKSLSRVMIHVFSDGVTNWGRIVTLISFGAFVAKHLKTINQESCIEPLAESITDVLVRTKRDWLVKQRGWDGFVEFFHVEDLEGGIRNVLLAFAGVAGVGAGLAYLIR
T1 sequence (Q07817 whole entry, species assumed): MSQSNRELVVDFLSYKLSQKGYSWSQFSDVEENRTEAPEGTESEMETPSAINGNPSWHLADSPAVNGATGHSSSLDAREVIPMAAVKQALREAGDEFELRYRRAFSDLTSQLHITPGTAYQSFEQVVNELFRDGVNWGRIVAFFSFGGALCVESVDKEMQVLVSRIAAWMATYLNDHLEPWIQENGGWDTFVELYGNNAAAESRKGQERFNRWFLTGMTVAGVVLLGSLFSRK
PCNA, sequence (P12004 whole entry, species assumed): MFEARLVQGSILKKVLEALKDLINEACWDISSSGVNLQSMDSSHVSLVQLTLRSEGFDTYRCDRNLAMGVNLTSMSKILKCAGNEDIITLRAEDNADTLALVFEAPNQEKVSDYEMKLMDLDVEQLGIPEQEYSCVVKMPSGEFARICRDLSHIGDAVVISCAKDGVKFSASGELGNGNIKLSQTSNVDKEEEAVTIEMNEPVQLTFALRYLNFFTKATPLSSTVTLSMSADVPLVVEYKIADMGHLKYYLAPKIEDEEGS
p53, sequence (P04637 whole entry, species assumed): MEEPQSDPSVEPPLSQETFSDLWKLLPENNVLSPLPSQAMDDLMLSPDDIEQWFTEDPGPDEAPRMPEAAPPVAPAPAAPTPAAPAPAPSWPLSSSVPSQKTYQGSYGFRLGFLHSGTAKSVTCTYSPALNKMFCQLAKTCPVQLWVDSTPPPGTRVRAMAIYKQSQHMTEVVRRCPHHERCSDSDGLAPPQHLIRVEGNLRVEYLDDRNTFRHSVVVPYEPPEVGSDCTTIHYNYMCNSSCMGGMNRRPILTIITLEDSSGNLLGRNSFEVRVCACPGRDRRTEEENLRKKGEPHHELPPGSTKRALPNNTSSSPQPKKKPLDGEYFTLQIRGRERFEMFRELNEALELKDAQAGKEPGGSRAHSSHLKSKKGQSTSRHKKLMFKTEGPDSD

Take “Fortilin: 172 amino acid anti-apoptotic polypeptide (SEQ ID NO:2), overexpressed from expression constructs or used as recombinant/in vitro translated protein”: the “co-immunoprecipitation of p53 with Fortilin in vitro” value with p53 is given as “co-immunoprecipitated with Fortilin in vitro”. Besides, the “co-immunoprecipitation of Bcl-xL with Fortilin in vitro” value with Bcl-xL [1] is “not Bcl-xL”; with Bcl-xL [4], “not”. Also, the “co-precipitation of MCL1 with Fortilin in vitro” value in the test with MCL1 [2] is “co-precipitated with Fortilin”. Also, the “co-immunoprecipitation of PCNA with Fortilin in vitro” value with PCNA is recorded as “not PCNA”. For the same substance, the “interaction / co-immunoprecipitation with MCL1 in vitro” value with MCL1 [3] is reported as “co-immunoprecipitated with Fortilin in vitro”; with MCL1 [3] (listed as full-length Fortilin) it was “co-immunoprecipitated MCL1 in vitro; also recorded: interacted”. Moreover, the “inhibition of p53 transactivation of Bax gene (luciferase normalized to β-galactosidase)” value in test [5] (twenty-four hours after transfection) is “inhibited p53 transactivation of the Bax gene”. For the same substance, the “inhibitory effect on p53 transactivation of Bax gene versus amount of Fortilin transfected” value in [5] (various amount of Fortilin-pFLAG) is reported as “stronger inhibitory effects on p53 transactivation of the Bax gene; also recorded: larger inhibitory effect on p53 transactivation of Bax gene”. Further, the “suppression of p53 induced apoptosis (apoptotic index)” value in the test with H1299 cells is recorded as “statistically significant (p<0.001) suppression of p53-induced apoptosis; also recorded: statistically significant (p<0.001) suppression of p53 induced apoptosis”. In addition, the “prevention of Etoposide-induced apoptosis (apoptotic index)” value in the test on HeLa cells (HeLa cells overexpressing FLAG-tagged protein, 5 μg/mL etoposide 12 hours) is “prevented HeLa cells from undergoing Etoposide-induced apoptosis in a statistically significant fashion; also recorded: as strong an anti-apoptotic effect as that of Bcl-xL and MCL1”. In addition, the “apoptotic index versus amount of Fortilin expressed” value in the test on HeLa cells (HeLa cells, various amounts of pFLAG-Fortilin, etoposide challenge) is listed as “more prominent anti-apoptotic effects”. Moreover, in the test on MCL1 [6], the “expression levels of MCL1 (MCL1 Expression Index)” value was “similar”. Besides, in the test with Bak, the “co-immunoprecipitation of Bak with Fortilin in vitro” value is on record as “not”. The “prevention of Bax mediated apoptosis (apoptotic index)” value in the test with U2OS cells is “suppressed Bax induced cell death”.
